In US20040018971A1 (published 2004):

B1: HER2/neu peptide, position 973, 9 amino acids (peptide)
peptide: VSEFSRMAR
notes: Synthetic peptide; also called Her2/neu.973 (9-mer)
B2: HER2/neu peptide, position 959, 10 amino acids (peptide)
peptide: WMIDSECRPR
notes: Synthetic peptide; also called Her2/neu.959 (10-mer)
B3: HER2/neu peptide, position 83, 10 amino acids (peptide)
peptide: YVLIAHNQVR
notes: Synthetic peptide; also called Her2/neu.83 (10-mer)
B4: HER2/neu peptide, position 835, 10 amino acids (peptide)
peptide: YLEDVRLVHR
notes: Synthetic peptide; also called Her2/neu.835 (10-mer)
B5: HER2/neu peptide, position 888, 9 amino acids (peptide)
peptide: WMALESILR
notes: Synthetic peptide; also called Her2/neu.888 (9-mer)
B6: HER2/neu peptide, position 739, 9 amino acids (peptide)
peptide: WIPDGENVK
notes: Synthetic peptide; also called Her2/neu.739 (9-mer)
B7: HER2/neu peptide, position 888, 10 amino acids (peptide)
peptide: WMALESILRR
notes: Synthetic peptide; also called Her2/neu.888 (10-mer)
B8: HER2/neu peptide, position 129, 10 amino acids (peptide)
peptide: VTGASPGGLR
notes: Synthetic peptide; also called Her2/neu.129 (10-mer)

Molecular target: T1, HLA-A*0301 (human)
T1 construct: also called HLA-A3
Experiment: competition with 125I-labelled probe peptide for purified HLA-A*0301, gel filtration; ratio to standard peptide 941.12

relative binding ratio (IC50 of standard peptide / IC50 of test peptide) | Binder
0.0002 ratio | ETLEEITGY (Synthetic peptide) [HER2/neu peptide, position 401, 9 amino acids (ETLEEITGY)]
0.0003 ratio | DVRPQPPSPR (Synthetic peptide) [HER2/neu peptide, position 1144, 10 amino acids (DVRPQPPSPR)]
0.0018 ratio | DLAARNVLVK (Synthetic peptide) [HER2/neu peptide, position 845, 10 amino acids (DLAARNVLVK)]
0.0002 ratio | EVTAEDGTQR (Synthetic peptide) [HER2/neu peptide, position 321, 10 amino acids (EVTAEDGTQR)]
0.0002 ratio | ELHCPALVTY (Synthetic peptide) [HER2/neu peptide, position 265, 10 amino acids (ELHCPALVTY)]

Molecular target: T2, HLA-A*0301 (purified HLA class I molecule) (human)
T2 construct: also called A3
Experiment: inhibition of 125I probe peptide binding to purified HLA; ratio to standard peptide; minus sign not explained

relative binding ratio | Binder
-0.0002 ratio (IC50 standard / IC50 test) | GAMPNQAQMR (also called Her2/neu.704 (10-mer)) [HER2/neu peptide, position 704, 10 amino acids]
-0.0002 ratio (IC50 standard / IC50 test) | GMSYLEDVR (also called Her2/neu.832 (9-mer)) [HER2/neu peptide, position 832, 9 amino acids]
-0.0002 ratio (IC50 standard / IC50 test) | FSRMARDPQR (also called Her2/neu.976 (10-mer)) [HER2/neu peptide, position 976, 10 amino acids]
-0.0002 ratio (IC50 standard / IC50 test) | GAGGMVHHR (also called Her2/neu.1038 (9-mer)) [HER2/neu peptide, position 1038, 9 amino acids]

Molecular target: T3, HLA-A*0301 (human)
T3 construct: also called A3
Experiment: competition with 125I-labelled standard peptide for purified HLA, gel filtration

relative binding ratio | Binder
-0.0002 ratio (IC50 of standard peptide / IC50 of test peptide) | B1
-0.0002 ratio (IC50 of standard peptide / IC50 of test peptide) | B2
0.0043 ratio (IC50 of standard peptide / IC50 of test peptide) | B3
0.0003 ratio (IC50 of standard peptide / IC50 of test peptide) | B4
-0.0002 ratio (IC50 of standard peptide / IC50 of test peptide) | B5
0.0002 ratio (IC50 of standard peptide / IC50 of test peptide) | B6
0.0085 ratio (IC50 of standard peptide / IC50 of test peptide) | B7
0.0002 ratio (IC50 of standard peptide / IC50 of test peptide) | B8

Molecular target: T4, HLA-A*1101 (human)
T4 construct: The construct is not described
Experiment: as above

relative binding ratio | Binder
0.0021 ratio (IC50 of standard peptide / IC50 of test peptide) | B1
0.0002 ratio (IC50 of standard peptide / IC50 of test peptide) | B2
0.0013 ratio (IC50 of standard peptide / IC50 of test peptide) | B3
0.0001 ratio (IC50 of standard peptide / IC50 of test peptide) | B4
-0.0002 ratio (IC50 of standard peptide / IC50 of test peptide) | B5
0.0001 ratio (IC50 of standard peptide / IC50 of test peptide) | B6
0.0016 ratio (IC50 of standard peptide / IC50 of test peptide) | B7
0.0005 ratio (IC50 of standard peptide / IC50 of test peptide) | B8

Molecular target: HLA-A*1101 (purified HLA class I molecule) (human)
Experiment: inhibition of 125I probe peptide binding to purified HLA; ratio to standard peptide

relative binding ratio | Binder
0.0041 ratio (IC50 standard / IC50 test) | GAMPNQAQMR (also called Her2/neu.704 (10-mer)) [HER2/neu peptide, position 704, 10 amino acids]
0.0002 ratio (IC50 standard / IC50 test) | GMSYLEDVR (also called Her2/neu.832 (9-mer)) [HER2/neu peptide, position 832, 9 amino acids]
0.001 ratio (IC50 standard / IC50 test) | FSRMARDPQR (also called Her2/neu.976 (10-mer)) [HER2/neu peptide, position 976, 10 amino acids]
0.0043 ratio (IC50 standard / IC50 test) | GAGGMVHHR (also called Her2/neu.1038 (9-mer)) [HER2/neu peptide, position 1038, 9 amino acids]

Molecular target: T5, HLA-DRB1*0101 (human)
T5 construct: also called DR1
Experiment: competition with 125I probe peptide, purified HLA

IC50 | Binder
5000 nM | GTDMKLRLPASPETH [Her2/neu.28]
833 nM | ETELVEPLTPSGAMP [Her2/neu.693]
1040 nM | ITDFGLARLLDIDET [Her2/neu.861]
26 nM | LTSIISAVVGILLVV [Her2/neu.651]
2.3 nM | KVPIKWMALESILRR [Her2/neu.883]
5000 nM | DMKLRLPASPETHLD [Her2/neu.30]

Molecular target: HLA-A*0301 (purified HLA class I molecule) (human)
Experiment: competition vs 125I standard peptide, purified HLA

relative binding ratio | Binder
0.0047 ratio (IC50 standard/IC50 test) | GVVFGILIK [HER2/neu peptide, position 668, 9 amino acids]

Molecular target: T6, HLA-A*3101 (purified HLA class I molecule) (human)
T6 construct: Purified MHC molecule
Experiment: competition vs 125I standard peptide, purified HLA

relative binding ratio | Binder
0.0019 ratio (IC50 standard/IC50 test) | GVVFGILIK [HER2/neu peptide, position 668, 9 amino acids]

Molecular target: T7, HLA-A*6801 (purified HLA class I molecule) (human)
T7 construct: Purified MHC molecule
Experiment: competition vs 125I standard peptide, purified HLA

relative binding ratio | Binder
0.0011 ratio (IC50 standard/IC50 test) | GVVFGILIK [HER2/neu peptide, position 668, 9 amino acids]

Molecular target: T8, HLA-A*1101 (purified HLA class I molecule) (human)
T8 construct: Purified MHC molecule
Experiment: competition vs 125I standard peptide, purified HLA

relative binding ratio | Binder
0.089 ratio (IC50 standard/IC50 test) | GVVFGILIK [HER2/neu peptide, position 668, 9 amino acids]

Molecular target: T9, HLA-A*3301 (purified HLA class I molecule) (human)
T9 construct: Purified MHC molecule
Experiment: competition vs 125I standard peptide, purified HLA

relative binding ratio | Binder
0.0025 ratio (IC50 standard/IC50 test) | GVVFGILIK [HER2/neu peptide, position 668, 9 amino acids]
